The source of these data is patent publication US20130243795A1 (Janssen / Centocor, published 2013).

Where two headings read alike, the source gives them in different places.

In test [1] the target is T1, Human CD27 ECD, monomeric soluble (construct limits not stated) (human, UniProt P26842 20-191).
T1 construct: extracellular domain; target of the Biacore assays; also called monomeric soluble CD27; CD27-His
The experiment in a line: Biacore SPR, purified mAb.

For test [2], the target named is T2, Human CD27, full length on the cell surface (human, UniProt P26842 21-260). The experiment in a line: cell-based or functional assay.
Test [3] deals with T2, Human CD27, full length on the cell …. The experiment in a line: cell-based or functional assay. This is another data set of the same source.
The target in test [4] is T3, Recombinant human CD27/Fc chimera (R&D Systems, Cat#382-CD) (human, UniProt P26842 20-191).
T3 construct: extracellular domain; bought protein; also called huCD27-Fc; Hu CD27 Fc; Fc part of the bought chimera not given
T3 sequence (P26842 20-191, change not shown): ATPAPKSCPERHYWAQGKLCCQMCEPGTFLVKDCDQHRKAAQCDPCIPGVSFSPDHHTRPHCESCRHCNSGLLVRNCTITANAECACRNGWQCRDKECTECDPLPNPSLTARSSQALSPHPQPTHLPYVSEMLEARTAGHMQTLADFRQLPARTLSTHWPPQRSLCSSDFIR
The experiment in a line: inhibition of IM-9 (CD70+) cell binding to immobilized CD27/Fc.

The target in test [5] is T1, Human CD27 ECD, monomeric soluble …. The experiment in a line: Biacore SPR; mAb captured via anti-mouse Fc; CD27 ECD as analyte; 25 C. In general terms: In SPR one partner is held on a chip, and binding of the other changes the refractive index at the surface.
Test [6] addresses T2, Human CD27, full length on the cell …. The experiment in a line: cell-based or functional assay. This is another data set of the same source.
Test [7] deals with T4, Human CD27 ECD truncated (ECD 1-121, cleavage site, His6) (human).
T4 construct: also called human CD27 ECD with His Tag; CD27-His
T4 chain: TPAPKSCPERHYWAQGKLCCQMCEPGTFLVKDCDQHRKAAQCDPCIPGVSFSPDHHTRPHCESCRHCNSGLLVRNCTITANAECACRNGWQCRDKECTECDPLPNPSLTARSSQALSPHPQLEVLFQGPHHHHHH
The experiment in a line: ELISA of culture supernatants; binding to CD27 ECD; signal relative to the parent. (An ELISA detects its analyte on a solid surface through an enzyme-linked reagent.)

The target in test [8] is T4, Human CD27 ECD truncated (ECD 1-121, …). The experiment in a line: ProteOn SPR; mAb captured via anti-human Fc; CD27 ECD as analyte.
In test [9] the target is T2, Human CD27, full length on the cell …. The experiment in a line: cell-based or functional assay. The source holds these as a separate data set.
Test [10] deals with T1, Human CD27 ECD, monomeric soluble …. The experiment in a line: Biacore SPR, purified mAb. The source holds these as a separate data set.
Test [11] addresses T2, Human CD27, full length on the cell …. The experiment in a line: cell-based or functional assay. This is another data set of the same source.
For test [12] the target is unchanged. The experiment in a line: cell-based or functional assay. This is another data set of the same source.
The target of test [13] is T1, Human CD27 ECD, monomeric soluble …. The experiment in a line: Biacore SPR, purified mAb, CD27 ECD.

T1 sequence (P26842 20-191): as the sequence (P26842 20-191, change not shown) above

B1: M713 (antibody, V domains shown)
VH: QVQLVQSGAEVKKPGASVKVSCKASGYAFSSSWMNWVRQAPGQGLEWMGRIYSGDADTNYAQKFKGRVTMTRDTSTSTVYMELSSLRSEDTAVYYCARSDYYGDYGFAYWGQGTLVTVSS
VL: DIQMTQSPSSLSASVGDRVTITCKASQSVDYAGESFMNWYQQKPGKAPKLLIYAASNLESGVPSRFSGSGSGTDFTLTISSLQPEDFATYYCQQSNEDPYTFGQGTKVEIK
notes: also called single-gene DNA ID 713
In [1], B1 registered a Kd of 0.056 nM, an off-rate constant (koff) of 1.16e-05 s⁻¹ and an on-rate constant (kon) of 206000 M⁻¹ s⁻¹. The “NF-kB Assay IC50” value in test [2] came to 0.296 nM.

B2: C2186 (antibody, V domains shown)
VH: QVQLQQPGAELVKPGASVKLSCKASGYTFTNYWMNWVKQRPGRGLEWIGRIHPSDSETHYNQNFKSKATLTVDKSSSTAYIQLSSLTSEDSAVYYCARPVLYGDYGFPCWGQGTLVTVSA
VL: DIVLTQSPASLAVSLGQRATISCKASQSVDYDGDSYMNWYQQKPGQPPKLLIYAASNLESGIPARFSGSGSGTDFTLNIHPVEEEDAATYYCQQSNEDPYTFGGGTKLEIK
Regarding B2, in [3], the “Plasma blast differentiation % Inhibition at 2.5 ug/ml” value was determined as 93%, the “T-Cell Proliferation % Inhibition at highest concentration (30 ug/ml)” value (“T-Cell Proliferation % Inhibition” for short) came to 65.3% and the “T-Cell Proliferation - CD4+ Cells IC50” value worked out at 0.775 µg/mL. The IC50 in test [4] came out at 0.059 µg/mL. Moreover, in [5], the affinity, expressed as Kd, was 2.55 nM. Moreover, in test [6], the “Agonism at 50 ug/ml (fold-increase in reporter gene signal relative to isotype control)” value was found to be 2.55 fold and the “NF-kB reporter IC50” value came out at 0.105 µg/mL.

B3: C2177 (antibody, V domains shown)
VH: QVQLQQSGPELVKPGASVKISCKASGYAFSSSWMNWVKQRPGKGLEWIGRIYPGDGDTNYNGKFKGKATLTADKSSSTAYMQLSSLTSEDSAVYFCARSDYYGDYGFAYWGQGTLVTVSA
VL: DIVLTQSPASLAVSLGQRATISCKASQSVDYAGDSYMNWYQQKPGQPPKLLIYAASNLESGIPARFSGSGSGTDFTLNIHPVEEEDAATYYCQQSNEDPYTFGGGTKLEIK
notes: also called C2177 hybridoma mAb
For B3, in test [3], the “Plasma blast differentiation % Inhibition at 2.5 ug/ml” value turned out to be 78%, the “T-Cell Proliferation % Inhibition” value worked out at 75.4% and the “T-Cell Proliferation - CD4+ Cells IC50” value is 0.245 µg/mL. Moreover, the IC50 in test [4] is 0.063 µg/mL. The molecule also came in with a Kd in test [5] of 3.07 nM. For the same molecule, in test [6], the “Agonism at 50 ug/ml (fold-increase in reporter gene signal relative to isotype control)” value amounted to 1.85 fold and the “NF-kB reporter IC50” value stood at 0.04 µg/mL.

B4: M40 (antibody, human IgG1, V domains shown)
VH: QVQLQQSGPELVKPGASVKISCKASGYAFSSSWMNWVKQRPGKGLEWIGRIYPGDGDTNYNGKFKGKATLTADKSSSTAYMQLSSLTSEDSAVYFCARSDYYGDYGFAYWGQGTLVTVSA
VL: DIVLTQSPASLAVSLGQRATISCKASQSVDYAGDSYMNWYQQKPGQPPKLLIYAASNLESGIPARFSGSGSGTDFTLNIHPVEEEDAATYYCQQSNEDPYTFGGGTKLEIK
notes: chimeric; also called C2177 parent; C2177 parent chimera
Consider B4, for which the ELISA signal in test [7] was 1. The same molecule yielded a dissociation constant (Kd) in test [8] of 0.96 nM. Moreover, the “NFkB IC50” value in [9] amounted to 0.14 nM. In [1], the dissociation constant Kd amounted to 1.24 nM, the koff was 0.00132 s⁻¹ and the on-rate (kon) came out at 1.06e+06 M⁻¹ s⁻¹. Further, in [2], the “NF-kB Assay IC50” value came out at 0.466 nM.

B5: C2191 (antibody, V domains shown)
VH: EVKLVESGGGLVKPGGSLKLSCAASGFTFSSYTMSWVRQTPEKRLEWVAYISSGGGNTYYPDSVKGRFTISRDNARNTLYLQMSSLRSEDTAMYYCSRHRGNPFDYWGQGTTLTVSS
VL: DIVLTQSPASLAVSLGQRATISCRASKSVSTSGYSFMHWYQQKPGQPPKLLIYLASNLESGVPARFSGSGSGTDFTLNIHPVEEEDAATYYCQHSRELPWTFGGGTKLEIK
notes: also called C2191 hybridoma mAb
As for B5, in test [3], the “Plasma blast differentiation % Inhibition at 2.5 ug/ml” value was determined as 105%, the “T-Cell Proliferation % Inhibition” value was 58.3% and the “T-Cell Proliferation - CD4+ Cells IC50” value came to 0.3 µg/mL. Further, the IC50 in test [4] is 0.059 µg/mL. In [5], this molecule displayed a Kd of 2.62 nM. Besides, in [6], the “Agonism at 50 ug/ml (fold-increase in reporter gene signal relative to isotype control)” value was found to be 3.05 fold and the “NF-kB reporter IC50” value was 0.08 µg/mL.

B6: M41 (antibody, human IgG1, V domains shown)
VH: EVKLVESGGGLVKPGGSLKLSCAASGFTFSSYTMSWVRQTPEKRLEWVAYISSGGGNTYYPDSVKGRFTISRDNARNTLYLQMSSLRSEDTAMYYCSRHRGNPFDYWGQGTTLTVSS
VL: DIVLTQSPASLAVSLGQRATISCRASKSVSTSGYSFMHWYQQKPGQPPKLLIYLASNLESGVPARFSGSGSGTDFTLNIHPVEEEDAATYYCQHSRELPWTFGGGTKLEIK
notes: chimeric; also called C2191 parent; C2191 parent chimera
Take B6: the dissociation constant (Kd) was 23.7 nM in test [10], 10.3 nM in test [8] and 13.7 nM in test [13]. The off-rate constant (koff) in test [10] was 0.0103 s⁻¹. The molecule further registered an on-rate constant (kon) in test [10] of 435000 M⁻¹ s⁻¹. The results for the “NFkB IC50” value in [11] and in test [9] were 0.045 nM and 0.3 nM, respectively. In addition, the ELISA signal in [7] was 1. For the same molecule, the “NF-kB Assay IC50” value in test [12] is 2.3 nM.

B7: M91 (antibody, human IgG1, V domains shown)
VH: QVQLVESGGGLVKPGGSLRLSCAASGFTFSSYTMSWIRQAPGKGLEWVSYISSGGGNTYYPDSVKGRFTISRDNAKNSLYLQMNSLRAEDTAVYYCARHRGNPFDYWGQGTLVTVSS
VL: DIQMTQSPSSLSASVGDRVTITCRASKSVSTSGYSFMHWYQQKPGKAPKLLIYLASNLESGVPSRFSGSGSGTDFTFTISSLQPEDIATYYCQHSRELPWTFGQGTKVEIK
notes: also called H31/L42; C2191 HFR variant
As for B7, the ELISA signal in [7] worked out at 1.09. In addition, the Kd in test [8] came out at 7.9 nM. Further, in test [9], the “NFkB IC50” value came out at 0.28 nM.

B8: M69 (antibody, human IgG1, V domains shown)
VH: EVQLVQSGAEVKKPGESLKISCKGSGYAFSSSWMNWVRQMPGKGLEWMGRIYPGDGDTNYSPSFQGQVTISADKSISTAYLQWSSLKASDTAMYYCARSDYYGDYGFAYWGQGTLVTVSS
VL: DIVMTQSPDSLAVSLGERATINCKASQSVDYAGDSYMNWYQQKPGQPPKLLIYAASNLESGVPDRFSGSGSGTDFTLTISSLQAEDVAVYYCQQSNEDPYTFGQGTKLEIK
notes: also called H28/L35; C2177 HFR variant
In the case of B8, the ELISA signal in test [7] was determined as 1.09. In test [8], this molecule registered a Kd of 0.77 nM. Further, in test [9], the “NFkB IC50” value is 0.11 nM.

B9: M709 (antibody, V domains shown)
VH: EVQLVQSGAEVKKPGESLKISCKGSGYAFSSSWMNWVRQMPGKGLEWMGRIYAGDADTAYSPSFQGQVTISADKSISTAYLQWSSLKASDTAMYYCARSDYYGDYGFAYWGQGTLVTVSS
VL: DIVMTQSPDSLAVSLGERATINCKASQSVDYAGESFMNWYQQKPGQPPKLLIYAASNLESGVPDRFSGSGSGTDFTLTISSLQAEDVAVYYCQQSNEDPYTFGQGTKLEIK
notes: also called single-gene DNA ID 709
In the case of B9, in test [1], the dissociation constant Kd was determined as 0.026 nM, the off-rate (koff) was found to be 5.89e-05 s⁻¹ and the association rate constant (kon) was determined as 2.3e+06 M⁻¹ s⁻¹. The “NF-kB Assay IC50” value in test [2] was determined as 0.272 nM.

B10: M711 (antibody, V domains shown)
VH: EVQLVQSGAEVKKPGESLKISCKGSGYAFSSSWMNWVRQMPGKGLEWMGRIYSGDADTNYNQKFKGQVTISADKSISTAYLQWSSLKASDTAMYYCARSDYYGDYGFAYWGQGTLVTVSS
VL: DIQMTQSPSSLSASVGDRVTITCKASQSVDYAGESFMNWYQQKPGKAPKLLIYAASNLESGVPSRFSGSGSGTDFTLTISSLQPEDFATYYCQQSNEDPYTFGQGTKVEIK
notes: also called single-gene DNA ID 711
In test [1], B10 showed an equilibrium dissociation constant (Kd) of 0.03 nM, a koff of 5.82e-05 s⁻¹ and a kon of 1.97e+06 M⁻¹ s⁻¹. Moreover, in [2], the “NF-kB Assay IC50” value stood at 0.258 nM.

B11: M710 (antibody, V domains shown)
VH: EVQLVQSGAEVKKPGESLKISCKGSGYAFSSSWMNWVRQMPGKGLEWMGRIYAGDADTNYAPSFQGQVTISADKSISTAYLQWSSLKASDTAMYYCARSDYYGDYGFAYWGQGTLVTVSS
VL: DIVMTQSPDSLAVSLGERATINCKASQSVDYAGESFMNWYQQKPGQPPKLLIYAASNLESGVPDRFSGSGSGTDFTLTISSLQAEDVAVYYCQQSNEDPYTFGQGTKLEIK
notes: also called single-gene DNA ID 710
B11: in test [1], the Kd amounted to 0.019 nM, the off-rate constant (koff) stood at 4.88e-05 s⁻¹ and the kon is 2.55e+06 M⁻¹ s⁻¹. In addition, in test [2], the “NF-kB Assay IC50” value was 0.32 nM.

A word on the Kd: it is the constant that tells how readily two partners part at equilibrium. A lower Kd goes with tighter binding. As a reminder, the koff is the rate constant with which the complex falls apart. Low readings indicate a long-lived complex, high ones a short-lived complex. By kon is commonly meant the rate constant with which the complex forms. The IC50 is the concentration at which inhibition is half-maximal.
